Reference: article PMC6039487

What was measured:
[1] = target: MC4R(C319Ter), expressed from mCherry-2A-MC4R (human) (UniProt P32245)
[2] = target: wild-type MC4R (melanocortin 4 receptor), expressed from mCherry-2A-MC4R (human) (UniProt P32245)
[3] = target: MC4R(L328Ter), expressed from mCherry-2A-MC4R (human) (UniProt P32245)

EC50 of α-MSH induced cAMP production, pGloSensor luciferase cAMP assay in transfected HEK293 cells (dose-response, 10 min stimulation) [1]: 2.7 nM | EC50 of α-MSH induced cAMP production, pGloSensor luciferase cAMP assay in transfected HEK293 cells (dose-response, 10 min stimulation) [2]: 2.5 nM | EC50 of α-MSH induced cAMP production, pGloSensor luciferase cAMP assay in transfected HEK293 cells (dose-response, 10 min stimulation) [3]: 3.3 nM
Substance: α-MSH (peptide)
